According to EP4442275A1, “ANTI-TYPE II COLLAGEN ANTIBODIES” (ModiQuest B.V., priority 2023, dated 2024):
“Also recorded” adds a separate entry of the source.

B1: [^111In]In-DTPA-MQ4.112hz_3_1: MQ4.112hz_3_1 conjugated with DTPA and labeled with 111In (conjugate)
VH: DVQLQESGPGLVKPSETLSLTCAVSGYSITSDYYWHWIRQFPGKGLEWMGYISYDGSNNYNPSLKSRVTISVDTSKNQFSLKLSSVTAADTAVYYCARDDDAMDYWGQGTLVTVSS
VL: DIQMTQSPSSLSASVGDRVTITCRASQDISNYLNWYQQKPGKAPKLLIYYTSRLHSGVPSRFSGSGSGTDFTFTISSLQPEDIATYYCQQGNTLPPTFGQGTKVEIK
B2: DTPA-IrDye 800CW anti-COLL II (MQ4.112 hz3_1): MQ4.112hz_3_1 dually conjugated with DTPA and IrDye 800CW, substitution ratio IrDye 800CW= 1.83 (conjugate)
VH: B1 VH
VL: B1 VL

Legend:
[1] = molecular target: T1, human cartilage explants (Homo sapiens, UniProt P02458); assay: Binding of 111In-labeled DTPA-conjugated antibodies to human cartilage explants (gamma counting); conditions: Figure 8
T1 construct: From surgical waste material obtained after total knee arthroplasty; from tissue; host or cells: human articular cartilage from joint replacement surgery of OA patients
T1 sequence (P02458 182-1241 limits assumed): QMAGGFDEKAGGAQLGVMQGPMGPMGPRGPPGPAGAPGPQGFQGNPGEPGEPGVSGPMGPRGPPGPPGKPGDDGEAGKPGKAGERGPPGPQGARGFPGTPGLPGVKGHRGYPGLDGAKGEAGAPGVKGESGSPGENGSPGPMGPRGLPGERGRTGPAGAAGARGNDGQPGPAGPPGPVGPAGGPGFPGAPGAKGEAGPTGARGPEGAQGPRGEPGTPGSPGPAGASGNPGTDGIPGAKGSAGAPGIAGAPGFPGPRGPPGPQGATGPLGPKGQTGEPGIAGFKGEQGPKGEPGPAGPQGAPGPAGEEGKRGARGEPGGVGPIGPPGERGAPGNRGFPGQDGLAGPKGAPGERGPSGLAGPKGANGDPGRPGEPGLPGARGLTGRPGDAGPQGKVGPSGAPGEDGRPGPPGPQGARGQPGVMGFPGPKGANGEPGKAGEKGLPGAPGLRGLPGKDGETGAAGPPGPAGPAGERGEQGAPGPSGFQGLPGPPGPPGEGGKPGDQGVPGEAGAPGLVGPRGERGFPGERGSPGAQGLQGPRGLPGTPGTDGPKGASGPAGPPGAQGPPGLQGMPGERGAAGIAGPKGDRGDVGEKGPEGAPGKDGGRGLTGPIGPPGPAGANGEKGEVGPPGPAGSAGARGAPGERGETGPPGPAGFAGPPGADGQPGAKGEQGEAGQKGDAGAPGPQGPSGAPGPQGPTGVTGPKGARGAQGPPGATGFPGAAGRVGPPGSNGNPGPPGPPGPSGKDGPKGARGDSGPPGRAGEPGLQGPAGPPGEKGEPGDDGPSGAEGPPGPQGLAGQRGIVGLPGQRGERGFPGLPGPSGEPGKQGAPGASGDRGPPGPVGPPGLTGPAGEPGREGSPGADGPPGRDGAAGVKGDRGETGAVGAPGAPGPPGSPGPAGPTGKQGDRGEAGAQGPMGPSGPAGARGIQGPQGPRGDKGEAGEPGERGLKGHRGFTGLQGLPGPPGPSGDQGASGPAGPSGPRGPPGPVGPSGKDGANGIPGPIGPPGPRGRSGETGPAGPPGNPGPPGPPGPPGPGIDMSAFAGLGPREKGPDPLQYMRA

[2] = molecular target: T1, human cartilage explants; assay: Binding of DTPA-IrDye 800CW conjugated antibodies to human cartilage with or without trypsin (Odyssey CLX imaging); conditions: 4 µg/ml, 4 H, 37°C; preserved regions of OA cartilage; Figure 9
Experimental: From surgical waste material obtained after total knee arthroplasty (Patient number SMK1186), human cartilage from the macroscopically preserved regions was isolated with a surgical blade, and 6 mm punches were made using a biopsy punch. Human cartilage explants were overnight incubated in DMEM/F12 without FBS supplemented with 10.000 U/mL penicillin/streptomycin at 37°C with 5% CO2. Half of the explants were incubated for 1 H with 2.5% Trypsin-EDTA in PBS at 37°C on a roller in a 50 ml falcon tube. The other half was incubated under the same conditions in PBS. The trypsin-EDTA was replaced by 1% FBS in PBS (to block the enzymatic activity of trypsin), in which the explants were incubated for 15 min. Cartilage explants were washed with PBS (3x 5 min). Three explants/condition were divided over sterile FACS tubes and exposed 4 µg/ml DTPA-IrDye 800CW isotype (2.201a) (substitution ratio IrDye 800CW= 1.54) or DTPA-IrDye 800CW anti-COLL II antibody (MQ4.112 hz3_1) (substitution ratio IrDye 800CW= 1.83) in DMEM/F12 media supplemented with 0.5% BSA (final volume was 1 ml) for 4 H on a roller at 37°C. […]
The explants were transferred to the bottom of wells of a 96-well plate to image with the Odyssey CLX near infrared imaging system. The fluorescent signal was measured in manually drawn ROI around the cartilage explants which was corrected for background signal by the software. […]

[3] = molecular target: T2, human cartilage (Homo sapiens, UniProt P02458); assay: Ex vivo binding to human cartilage with different stages of OA-induced damage (Odyssey CLX imaging)
T2 construct: From surgical waste material obtained after total knee arthroplasty; from tissue; host or cells: human articular cartilage from joint replacement surgery of OA patients
T2 sequence (P02458 182-1241 limits assumed): as above
Experimental: From surgical waste material obtained after total knee arthroplasty (Patient number SMK1180), human cartilage from the macroscopically preserved, medium damage and severe damaged regions were isolated with a surgical blade. Human cartilage explants were overnight incubated in DMEM/F12 without FBS supplemented with 10.000 U/mL penicillin/streptomycin at 37°C with 5% CO2. Punches (6 mm) were generated using a biopsy punch. Three explants/damage condition were divided over sterile FACS tubes and exposed 4 µg/ml DTPA-IrDye 800CW isotype (2.201a) (substitution ratio IrDye 800CW= 1.54) or DTPA-IrDye 800CW anti-COLL II antibody (MQ4.112 hz3_1) (substitution ratio IrDye 800CW= 1.83) in DMEM/F12 media supplemented with 0.5% BSA (final volume was 1 ml) for 4 H on a roller at 37°C. After this incubation the samples were transferred to 50 ml falcon tubes (1 tube/condition, 3 punches/tube) and washed with PBS (50 ml) at 37°C (1x 30 min), followed by an o/n wash with PBS on a shaker at 4°C.
The explants were transferred to the bottom of wells of a 96-well plate to measure the cartilage associated fluorescence with the Odyssey CLX near infrared imaging system (Figure 11). The cartilage was fixed in formalin for 4 H and thereafter transferred to 70% ethanol until processed/embedded in paraffin. […]

| Molecule | cartilage associated radioactivity corrected for their weight, trypsin-damaged human cartilage compared to non-treated explants ([1]; 4 µg/ml, 1.5 H, 37°C) | cartilage associated radioactivity/gram in trypsin-damaged human cartilage compared to isotype ([1]; p<0.001, One-way ANOVA) | binding (fluorescent signal) to trypsin-induced damaged human cartilage explants compared to untreated explants [2] | localization of the fluorescent signal in sections of the explants ([3]; Figure 11 bottom, compared with SafO staining) | binding (fluorescent signal) to cartilage when OA-damage increases ([3]; macroscopically preserved, medium damage and severe damaged regions, 4 µg/ml, 4 H, Figure 11, listed as DTPA-IrDye 800CW anti-COLL II antibody) |
| --- | --- | --- | --- | --- | --- |
| B1 | higher | higher |  |  |  |
| B2 |  |  | increased binding; also recorded: increases | localizes on the spots where visible cartilage damage is present | binds more; also recorded: increases |
